Measured values taken from patent US20040001830A1.

Key:
Experiment in all cases: cell-based or functional assay
[1] = molecular target: Thromboplastin from human (TF source of the TF-dependent clotting assay) (human) (UniProt P13726)
[2] = molecular target: Lipidated TF (human) (UniProt P13726)
[3] = molecular target: Recombinant human soluble TF1-209 (human) (UniProt P13726)

IC50, TF-dependent clotting assay (Assay 7) [1]: 0.0044 nM
IC50, inhibition of FXa generation (Assay 5; 10 pM lipidated TF, 100 pM FVIIa, 50 nM FX) [2]: 51 pM
IC50, inhibition of FVIIa/sTF amidolytic activity (Assay 4; 10 nM sTF, 10 nM FVIIa, substrate S2288) [3]: 7 nM
Substance: FFR-rFVIIa: FVIIa blocked in the active site with D-Phe-L-Phe-L-Arg-chloromethyl ketone (from UniProt P08709 61-212) (enzyme)
